# Assays:
# Assay in all cases: cell-based or functional assay
# [1] = molecular target: HIV Env of isolate SC05_8C11_2344 (HIV)
# [2] = molecular target: HIV Env of isolate Du422.1 (HIV)
# [3] = molecular target: HIV Env of isolate SC422661.8 (HIV)
# [4] = molecular target: HIV Env of isolate CNE58 (HIV)
# [5] = molecular target: HIV Env of isolate T250-4 (HIV)
# [6] = molecular target: HIV Env of isolate CNE53 (HIV)
# [7] = molecular target: HIV Env of isolate PVO.4 (HIV)
# [8] = molecular target: HIV Env of isolate 0330.v4.c3 (HIV)
# [9] = molecular target: HIV Env of isolate 1006_11_C3_1601 (HIV)
# [10] = molecular target: HIV Env of isolate QH0692.42 (HIV)
# [11] = molecular target: HIV Env of isolate T251-18 (HIV)
# [12] = molecular target: HIV Env of isolate HIV-001428-2.42 (HIV)
# [13] = molecular target: HIV Env of isolate 6811.v7.c18 (HIV)
# [14] = molecular target: HIV Env of isolate HIV-16845-2.22 (HIV)
# [15] = molecular target: HIV Env of isolate 1394C9G1(Rev-) (HIV)
# [16] = molecular target: HIV Env of isolate 6244_13_B5_4576 (HIV)
# [17] = molecular target: HIV Env of isolate CNE52 (HIV)
# [18] = molecular target: HIV Env of isolate 6240_08_TA5_4622 (HIV)
# [19] = molecular target: HIV Env of isolate 3301.v1.c24 (HIV)
# [20] = molecular target: HIV Env of isolate Du172.17 (HIV)
# [21] = molecular target: HIV Env of isolate 3103.v3.c10 (HIV)
# [22] = molecular target: HIV Env of isolate Ce1176_A3 (HIV)
# [23] = molecular target: HIV Env of isolate WEAU_d15_410_5017 (HIV)
# [24] = molecular target: HIV Env of isolate ZM109F.PB4 (HIV)
# [25] = molecular target: HIV Env of isolate CNE20 (HIV)
# [26] = molecular target: HIV Env of isolate CNE19 (HIV)
# [27] = molecular target: HIV Env of isolate AC10.0.29 (HIV)
# [28] = molecular target: HIV Env of isolate X2088_c9 (HIV)
# [29] = molecular target: HIV Env of isolate 235-47 (HIV)
# [30] = molecular target: HIV Env of isolate T211-9 (HIV)
# [31] = molecular target: HIV Env of isolate CAAN5342.A2 (HIV)
# [32] = molecular target: HIV Env of isolate X1193_c1 (HIV)
# [33] = molecular target: HIV Env of isolate REJO4541.67 (HIV)
# [34] = molecular target: HIV Env of isolate 928-28 (HIV)
# [35] = molecular target: HIV Env of isolate 6952.v1.c20 (HIV)
# [36] = molecular target: HIV Env of isolate ZM53M.PB12 (HIV)
# [37] = molecular target: HIV Env of isolate Ce704809221_1B3 (HIV)
# [38] = molecular target: HIV Env of isolate CNE21 (HIV)
# [39] = molecular target: HIV Env of isolate Ce1172_H1 (HIV)
# [40] = molecular target: HIV Env of isolate ZM214M.PL15 (HIV)
# [41] = molecular target: HIV Env of isolate A07412M1.vrc12 (HIV)
# [42] = molecular target: HIV Env of isolate X1254_c3 (HIV)
# [43] = molecular target: HIV Env of isolate P0402_C2_11 (HIV)
# [44] = molecular target: HIV Env of isolate 3817.v2.c59 (HIV)
# [45] = molecular target: HIV Env of isolate 7030102001E5(Rev-) (HIV)
binder,measurement,setting,value
"PGT-121 (antibody, V domains shown) VH: QMQLQESGPGLVKPSETLSLTCSVSGASISDSYWSWIRRSPGKGLEWIGYVHKSGDTNYSPSLKSRVNLSLDTSKNQVSLSLVAATAADSGKYYCARTLHGRRIYGIVAFNEWFTYFYMDVWGNGTQVTVSS VL: SDISVAPGETARISCGEKSLGSRAVQWYQHRAGQAPSLIIYNNQDRPSGIPERFSGSPDSPFGTTATLTITSVEAGDEADYYCHIWDSRVPTKWVFGGGTTLTVLG",neutralization (Table 6 value),[1],0.0278
same,neutralization (Table 6 value),[2],0.00172
same,neutralization (Table 6 value),[3],0.0272
same,neutralization (Table 6 value),[4],1.28
same,neutralization (Table 6 value),[5],0.00021
same,neutralization (Table 6 value),[6],0.00701
same,neutralization (Table 6 value),[7],0.115
same,neutralization (Table 6 value),[8],0.0513
same,neutralization (Table 6 value),[9],0.00382
same,neutralization (Table 6 value),[10],0.176
same,neutralization (Table 6 value),[11],1.16
same,neutralization (Table 6 value),[12],0.0111
same,neutralization (Table 6 value),[13],0.00125
same,neutralization (Table 6 value),[14],0.25
same,neutralization (Table 6 value),[15],0.122
same,neutralization (Table 6 value),[16],0.14
same,neutralization (Table 6 value),[17],1.94
same,neutralization (Table 6 value),[18],0.0427
same,neutralization (Table 6 value),[19],0.00869
same,neutralization (Table 6 value),[20],0.0316
same,neutralization (Table 6 value),[21],0.0206
same,neutralization (Table 6 value),[22],0.00882
same,neutralization (Table 6 value),[23],0.0144
same,neutralization (Table 6 value),[24],0.558
same,neutralization (Table 6 value),[25],0.00147
same,neutralization (Table 6 value),[26],0.00315
same,neutralization (Table 6 value),[27],0.029
same,neutralization (Table 6 value),[28],0.00214
same,neutralization (Table 6 value),[29],0.0457
same,neutralization (Table 6 value),[30],0.891
same,neutralization (Table 6 value),[31],0.00872
same,neutralization (Table 6 value),[32],0.000417
same,neutralization (Table 6 value),[33],0.286
same,neutralization (Table 6 value),[34],0.836
same,neutralization (Table 6 value),[35],0.000292
same,neutralization (Table 6 value),[36],0.00038
same,neutralization (Table 6 value),[37],0.028
same,neutralization (Table 6 value),[38],0.00525
same,neutralization (Table 6 value),[39],0.00693
same,neutralization (Table 6 value),[40],0.119
same,neutralization (Table 6 value),[41],0.00949
same,neutralization (Table 6 value),[42],0.0206
same,neutralization (Table 6 value),[43],0.000423
same,neutralization (Table 6 value),[44],0.00949
same,neutralization (Table 6 value),[45],0.00679
"ePGT121.15.H1.L1 (antibody, V domains shown) VH: QMQLQESGPGLVKPGETLSLTCSVSGASISSSYWSWLRETPGKGLEWIGYTHHSGDTNYAPSLKSRVHLGLHPSKNQVSLSLTSVTAADTAVYYCARTLHGRRIYGVVAFNEWFTYFYWEVWGNGTQVTVSS VL: SDISVAPGETVRISCGGESIGSRAVQWYQHRAGQAPKLIIYNNQDRPPGIPERFSGSPDIDFGTTATLTITNVEAGDEATYYCHIWDSRRPTNWVFGGGTTLTVL",neutralization (Table 6 value),[1],0.00762
same,neutralization (Table 6 value),[2],0.00243
same,neutralization (Table 6 value),[3],0.00372
same,neutralization (Table 6 value),[4],0.00795
same,neutralization (Table 6 value),[5],0.000854
same,neutralization (Table 6 value),[6],0.00288
same,neutralization (Table 6 value),[7],0.0044
same,neutralization (Table 6 value),[8],0.00621
same,neutralization (Table 6 value),[9],0.00195
same,neutralization (Table 6 value),[10],0.0149
same,neutralization (Table 6 value),[11],0.0274
same,neutralization (Table 6 value),[12],0.00153
same,neutralization (Table 6 value),[13],0.00109
same,neutralization (Table 6 value),[14],0.0209
same,neutralization (Table 6 value),[15],0.00403
same,neutralization (Table 6 value),[16],0.00697
same,neutralization (Table 6 value),[17],0.0515
same,neutralization (Table 6 value),[18],0.0052
same,neutralization (Table 6 value),[19],0.00166
same,neutralization (Table 6 value),[20],0.0024
same,neutralization (Table 6 value),[21],0.00509
same,neutralization (Table 6 value),[22],0.00282
same,neutralization (Table 6 value),[23],0.00209
same,neutralization (Table 6 value),[24],2.15
same,neutralization (Table 6 value),[25],0.000933
same,neutralization (Table 6 value),[26],0.00103
same,neutralization (Table 6 value),[27],0.00272
same,neutralization (Table 6 value),[28],0.00147
same,neutralization (Table 6 value),[29],0.0061
same,neutralization (Table 6 value),[30],0.00532
same,neutralization (Table 6 value),[31],0.00192
same,neutralization (Table 6 value),[32],0.000256
same,neutralization (Table 6 value),[33],0.311
same,neutralization (Table 6 value),[34],0.0868
same,neutralization (Table 6 value),[35],0.00081
same,neutralization (Table 6 value),[36],0.00206
same,neutralization (Table 6 value),[37],0.00162
same,neutralization (Table 6 value),[38],0.000929
same,neutralization (Table 6 value),[39],0.00075
same,neutralization (Table 6 value),[40],0.0146
same,neutralization (Table 6 value),[41],0.000964
same,neutralization (Table 6 value),[42],0.00299
same,neutralization (Table 6 value),[43],0.00268
same,neutralization (Table 6 value),[44],0.00495
same,neutralization (Table 6 value),[45],0.00261

# Reference: US20210292396A1 (INTERNATIONAL AIDS VACCINE INITIATIVE, published 2021)
